Test results reported in US20200199241A1 (Chugai, published 2020).
Residue numbers refer to the chain shown, from its start. In names and notes the source's numbering stands.

B1: IgG1-F452 (antibody)
heavy: QVQLQESGPGLVKPSETLSLTCAVSGHSISHDHAWSWVRQPPGEGLEWIGFISYSGITNYNPSLQGRVTISRDNSKNTLYLQMNSLRAEDTAVYYCARSLARTTAMDYWGEGTLVTVSSASTKGPSVFPLAPSSKSTSGGTAALGCLVKDYFPEPVTVSWNSGALTSGVHTFPAVLQSSGLYSLSSVVTVPSSSLGTQTYICNVNHKPSNTKVDKKVEPKSCDKTHTCPPCPAPELLGGPSVFLFPPKPKDTLMISRTMEVTCVVVDVSHEDPEVKFNWYVDGVEVHNAKTKPREEQYNSTYRVVSVLAVLHQDWLNGKEYKCKVSNKALPAPIEKTISKAKGQPREPQVYTLPPSRDELTKNQVSLTCLVKGFYPSDIAVEWESNGQPENNYKTTPPVLDSDGSFFLYSKLTVDKSRWQQGNVFSCSVLHEALHYHYTQKSLSLSP
light: not shown
notes: EU numbering; copies: 2 + 2
B2: IgG1-F473 (antibody)
heavy: B1 heavy with M259T, A309T, V310P, L311P, N327G
light: not shown
notes: EU numbering; copies: 2 + 2
B3: IgG1-F453 (antibody)
heavy: B1 heavy with M259N
light: not shown
notes: EU numbering; copies: 2 + 2
B4: IgG1-F464 (antibody)
heavy: B1 heavy with M259A, A309Q, V310P
light: not shown
notes: EU numbering; copies: 2 + 2
B5: IgG1-F476 (antibody)
heavy: B1 heavy with M259V, A309Q, E384A
light: not shown
notes: EU numbering; copies: 2 + 2
B6: IgG1-F507 (antibody)
heavy: B1 heavy with M259V, N288A, A309Q
light: not shown
notes: EU numbering; copies: 2 + 2
B7: IgG1-F465 (antibody)
heavy: B1 heavy with M259V, N288E, A309Q, N327G
light: not shown
notes: EU numbering; copies: 2 + 2
B8: IgG1-F457 (antibody)
heavy: B1 heavy with S241K, M259V, A309T, V310P
light: not shown
notes: EU numbering; copies: 2 + 2
B9: IgG1-F484 (antibody)
heavy: B1 heavy with M259V, V307A, A309Q, L430M
light: not shown
notes: EU numbering; copies: 2 + 2
B10: IgG1-F468 (antibody)
heavy: B1 heavy with S241K, M259T, A309T, V310P
light: not shown
notes: EU numbering; copies: 2 + 2
B11: IgG1-F508 (antibody)
heavy: B1 heavy with M259V, A309Q, N317A
light: not shown
notes: EU numbering; copies: 2 + 2
B12: IgG1-F466 (antibody)
heavy: B1 heavy with T258E, M259V, A309T, L430M
light: not shown
notes: EU numbering; copies: 2 + 2
B13: IgG1-F499 (antibody)
heavy: B1 heavy with M259A, L430V
light: not shown
notes: EU numbering; copies: 2 + 2
B14: IgG1-F500 (antibody)
heavy: B1 heavy with M259S, A309Q
light: not shown
notes: EU numbering; copies: 2 + 2
B15: IgG1-F493 (antibody)
heavy: B1 heavy with S241K, M259P, D272F, A309P, N327G, L430Y
light: not shown
notes: EU numbering; copies: 2 + 2
B16: IgG1-F485 (antibody)
heavy: B1 heavy with M259V, N288E, L430M
light: not shown
notes: EU numbering; copies: 2 + 2
B17: IgG1-F458 (antibody)
heavy: B1 heavy with M259V, A309Q, V310P, N327G
light: not shown
notes: EU numbering; copies: 2 + 2
B18: IgG1-F456 (antibody)
heavy: B1 heavy with M259V, A309Q, L430F
light: not shown
notes: EU numbering; copies: 2 + 2
B19: IgG1-F470 (antibody)
heavy: B1 heavy with T258E, M259T, A309T, V310P, N327G
light: not shown
notes: EU numbering; copies: 2 + 2
B20: IgG1-F498 (antibody)
heavy: B1 heavy with M259A, A309T, L430V
light: not shown
notes: EU numbering; 'N428V' as printed, probably M428V; copies: 2 + 2
B21: IgG1-F506 (antibody)
heavy: B1 heavy with M259V, N299A, A309Q
light: not shown
notes: EU numbering; copies: 2 + 2
B22: IgG1-F483 (antibody)
heavy: B1 heavy with M259V, A309Q, Q313A, L430M
light: not shown
notes: EU numbering; copies: 2 + 2
B23: IgG1-F497 (antibody)
heavy: B1 heavy with M259T, L430V
light: not shown
notes: as for B20
B24: IgG1-F474 (antibody)
heavy: B1 heavy with M259T, A309T, V310P, L311R, N327G
light: not shown
notes: EU numbering; copies: 2 + 2
B25: IgG1-F472 (antibody)
heavy: B1 heavy with M259T, A309T, V310P, N327G, P389E
light: not shown
notes: EU numbering; copies: 2 + 2
B26: IgG1-F454 (antibody)
heavy: B1 heavy with M259I
light: not shown
notes: EU numbering; copies: 2 + 2
B27: IgG1-F467 (antibody)
heavy: B1 heavy with T258E, M259T, A309T, L430M
light: not shown
notes: EU numbering; copies: 2 + 2
B28: IgG1-F475 (antibody)
heavy: B1 heavy with T258E, M259V, A309Q
light: not shown
notes: EU numbering; copies: 2 + 2
B29: IgG1-F509 (antibody)
heavy: B1 heavy with M259V, A309Q, N386A
light: not shown
notes: EU numbering; copies: 2 + 2
B30: IgG1-F459 (antibody)
heavy: B1 heavy with M259V, A309Q, V310P, Q313A, N327G
light: not shown
notes: EU numbering; copies: 2 + 2
B31: IgG1-F482 (antibody)
heavy: B1 heavy with M259V, A309Q, N327G, L430M
light: not shown
notes: EU numbering; copies: 2 + 2
B32: IgG1-F490 (antibody)
heavy: B1 heavy with S241K, M259V, A309T, V310P, Q313H
light: not shown
notes: EU numbering; copies: 2 + 2
B33: IgG1-F469 (antibody)
heavy: B1 heavy with M259T, A309T, V310P, N327G
light: not shown
notes: EU numbering; 'N3250' read as N325G; copies: 2 + 2
B34: IgG1-F477 (antibody)
heavy: B1 heavy with M259V, A309Q, P389E
light: not shown
notes: EU numbering; copies: 2 + 2
B35: IgG1-F463 (antibody)
heavy: B1 heavy with M259A, V310P
light: not shown
notes: EU numbering; copies: 2 + 2
B36: IgG1-F455 (antibody)
heavy: B1 heavy with M259V, A309Q, L430Y
light: not shown
notes: EU numbering; copies: 2 + 2
B37: IgG1-F471 (antibody)
heavy: B1 heavy with M259T, A309T, V310P, N327G, E384A
light: not shown
notes: EU numbering; copies: 2 + 2
B38: IgG1-F480 (antibody)
heavy: B1 heavy with M259L, A309T, V310P, L430M
light: not shown
notes: EU numbering; copies: 2 + 2
B39: IgG1-F481 (antibody)
heavy: B1 heavy with M259T, A309Q, L430M
light: not shown
notes: EU numbering; copies: 2 + 2
B40: IgG1-F488 (antibody)
heavy: B1 heavy with M259V, A309T, V310P, N327G
light: not shown
notes: EU numbering; copies: 2 + 2
B41: IgG1-F486 (antibody)
heavy: B1 heavy with M259V, A309Q, L311R, Q313H
light: not shown
notes: EU numbering; copies: 2 + 2
B42: IgG1-F460 (antibody)
heavy: B1 heavy with M259V, V310P, N327G
light: not shown
notes: EU numbering; copies: 2 + 2

Target: T1, human FcRn (soluble human FcRn complexed with β2-microglobulin) (human, UniProt P61769 21-119, limits assumed)
T1 construct: also called hFcRn
Test: SPR, pH 7.0;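 further: antibodies captured on a Protein L sensor chip with human FcRn injected as analyte, KD calculated from fitted association and dissociation rate constants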

Row | Kd | Binder
1 | 140 nM | B1
2 | 450 nM | B2
3 | 78 nM | B3
4 | 55 nM | B4
5 | 55 nM | B5
6 | 51 nM | B6
7 | 21 nM | B7
8 | 40 nM | B8
9 | 62 nM | B9
10 | 57 nM | B10
11 | 110 nM | B11
12 | 350 nM | B12
13 | 520 nM | B13
14 | 43 nM | B14
15 | 490 nM | B15
16 | 97 nM | B16
17 | 15 nM | B17
18 | 34 nM | B18
19 | 54 nM | B19
20 | 1300 nM | B20
21 | 190 nM | B21

Row | Kd | Binder
22 | 57 nM | B22
23 | 3100 nM | B23
24 | 350 nM | B24
25 | 54 nM | B25
26 | 96 nM | B26
27 | 570 nM | B27
28 | 43 nM | B28
29 | 58 nM | B29
30 | 13 nM | B30
31 | 70 nM | B31
32 | 75 nM | B32
33 | 56 nM | B33
34 | 43 nM | B34
35 | 130 nM | B35
36 | 27 nM | B36
37 | 66 nM | B37
38 | 39 nM | B38
39 | 56 nM | B39
40 | 35 nM | B40
41 | 340 nM | B41
42 | 47 nM | B42
